Holding throughout (assay): cell-based or functional assay
For experiment [1], the target named is Soluble CD73 in MDA-MB-231 cells (UniProt P21589).
The target in experiment [2] is Membrane-bound human CD73 (internalisation assay) (human) (UniProt P21589).
Experiment [3] addresses Catalytically active mouse CD73 (biochemical assay) (mouse) (UniProt Q61503).
Experiment [4] has as its target Catalytically active human CD73 (biochemical assay) (human) (UniProt P21589).
Experiment [5] addresses Membrane-bound CD73 in MDA-MB-231 cells (UniProt P21589).
Experiment [6] addresses Membrane-bound mouse CD73 (internalisation assay) (mouse) (UniProt Q61503).

Substance BMS-986179 (antibody) displayed a % Inhibition of CD73 (cell-based assay), soluble in experiment [1] of 10.4%. In experiment [2], this substance had a % internalisation of membrane-bound CD73, Human of 61.7%; a Human % Inh, n = 1 (receptor internalisation assay) of 8.99%; a Human % Inh, n = 2 (receptor internalisation assay) of 61.7%. For the same substance, the % Inhibition of CD73 (biochemical assay), Mouse in experiment [3] is 21.3%. This substance also came in with a % Inhibition of CD73 (biochemical assay), Human in experiment [4] of 20%. For the same substance, in experiment [5], the % Inhibition of CD73 (cell-based assay), Membrane-bound stood at 29.9%; the Max % Act Mean is 31%; the Max % Act n = 1 was found to be 30%; the Max % Act n = 2 came to 32%. In experiment [6], this substance displayed a % internalisation of membrane-bound CD73, Mouse of 7.14%; a Murine % Inh, n = 1 (receptor internalisation assay) of 5.18%; a Murine % Inh, n = 2 (receptor internalisation assay) of 9.09%.
For the substance IPH53 (antibody), the % Inhibition of CD73 (cell-based assay), soluble in experiment [1] was 77.1%. In experiment [2], this substance came in with a % internalisation of membrane-bound CD73, Human of 47.5%; a Human % Inh, n = 1 (receptor internalisation assay) of 49%; a Human % Inh, n = 2 (receptor internalisation assay) of 46%. Besides, the % Inhibition of CD73 (biochemical assay), Mouse in experiment [3] was 17.8%. The % Inhibition of CD73 (biochemical assay), Human in experiment [4] was 91.3%. In experiment [5], this substance had a % Inhibition of CD73 (cell-based assay), Membrane-bound of 68.2%; a Max % Act Mean of 68.8%; a Max % Act n = 1 of 69.5%; a Max % Act n = 2 of 68%. In experiment [6], this substance showed a % internalisation of membrane-bound CD73, Mouse of 6.46%; a Murine % Inh, n = 1 (receptor internalisation assay) of 5.18%; a Murine % Inh, n = 2 (receptor internalisation assay) of 7.74%.
For IgG1K (antibody), in experiment [5], the Max % Act Mean worked out at 3.5% and the Max % Act n = 2 was found to be 3.5%.
For the substance MEDI9447 (antibody), in experiment [1], the % Inhibition of CD73 (cell-based assay), soluble is 40%. Moreover, in experiment [2], the % internalisation of membrane-bound CD73, Human amounted to 58%; the Human % Inh, n = 1 (receptor internalisation assay) came to 49.9%; the Human % Inh, n = 2 (receptor internalisation assay) was found to be 66.2%. The substance also came in with a % Inhibition of CD73 (biochemical assay), Mouse in experiment [3] of 49.1%. This substance had a % Inhibition of CD73 (biochemical assay), Human in experiment [4] of 42.3%. In experiment [5], this substance registered a % Inhibition of CD73 (cell-based assay), Membrane-bound of 42%; a Max % Act Mean of 41.8%; a Max % Act n = 1 of 35.5%; a Max % Act n = 2 of 48%. In experiment [6], this substance had a % internalisation of membrane-bound CD73, Mouse of 70.9%; a Murine % Inh, n = 1 (receptor internalisation assay) of 62.5%; a Murine % Inh, n = 2 (receptor internalisation assay) of 79.4%.

The values above are taken from patent publication US20240117065A1.
